The results in this text go back to patent publication US20200131227A1, “POLYPEPTIDE WITH TUMOUR BINDING ACTIVITY” (RUPRECHT-KARLS-UNIVERSITÄT HEIDELBERG, priority 2017, published 2020).

Where a SMILES comes first, the peptide text is derived from it. Bridges are numbered along the chain shown (N, C = ends). The star is where a group is joined. DOTA = O=C(O)CN1CCN(CC(=O)O)CCN(CC(=O)*)CCN(CC(=O)O)CC1

In one data set the test system is carcinoma cell lines. Nature of the data set: In vitro binding of radiolabeled peptides to several carcinoma cell lines. It counts as cell-based, human. The note with it: after 240 min (FIG. 17C). The procedure, abridged:
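Cells seeded 48 h were incubated with ^125I-labeled peptide in serum-free medium for 10 or 60 min, alone or with unlabeled peptide (10^−4 to 10^−11 M); HNO97 kinetics, efflux and internalization (37° C and 4° C, acid strip) used ^177Lu-DOTA-SFITGv6. Gamma counting gave % applied dose per 10^6 cells.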

Data set [1] can be described thus: Biodistribution, HNO97 xenografts. The note with it: Balb/c nude, mouse, in vivo, iv, 1 MBq, total radioactivity.

For the compound `CC(C)C[C@@H]1NC(=O)[C@H](CC(=O)O)NC(=O)CNC(=O)[C@H](CCCNC(=N)N)NC(=O)CNC(=O)[C@H]([C@@H](C)O)NC(=O)[C@@H](NC(=O)[C@H](CCCNC(=N)N)NC(=O)CNC(=O)CN2CCN(CC(=O)O)CCN(CC(=O)O)CCN(CC(=O)O)CC2)CSSC[C@@H](C(=O)N[C@@H](Cc2ccc(O)cc2)C(=O)N2CCC[C@H]2C(=O)N[C@@H](CC(=O)O)C(N)=O)NC(=O)[C@H](CC(C)C)NC(=O)[C@H](CCCNC(=N)N)NC(=O)CNC1=O` [^177Lu-DOTA-SFLAP3, metal not drawn] ({DOTA}-GRCTGRGDLGRLCYPD-NH2; disulfide 3-13; N-terminus and C-terminus assumed), the “binding/internalization late in efflux experiment” value in the data set on carcinoma cell lines was “moderate renewed increase of binding/internalization”. Moreover, in data set [1], the tissue uptake at 1 h was 9.1 ± 1.2 %ID/g and the tissue uptake at 6 h was determined as 5.8 ± 1.44 %ID/g.

For orientation: tissue uptake means the share of the injected amount in each gram of the tissue.
